# Results published in publication PMC5866752 (Nature chemical biology, 2018).
# Where a SMILES comes first, the peptide text is derived from it. Where no end group is shown, it is not given here.
# T1: p6–UEV interaction (Homo sapiens, UniProt Q99816)
# T1 sequence (Q99816 2-145 limits assumed): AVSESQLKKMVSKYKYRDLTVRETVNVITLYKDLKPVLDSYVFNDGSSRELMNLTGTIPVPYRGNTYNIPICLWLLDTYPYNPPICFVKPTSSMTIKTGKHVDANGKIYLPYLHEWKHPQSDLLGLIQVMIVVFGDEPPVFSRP
# T2: His6-UEV (ubiquitin E2 variant domain of the human TSG101 protein) (human, UniProt Q99816 2-145)
# T2 sequence: T1 sequence (Q99816 2-145 limits assumed)
# B1: N-terminal FITC-labeled peptide 3 (peptide)
# chain: GVAGGAACLHFFLSMPPSHVLDIC
# modifications: FITC on the N-terminus; two non-overlapping lanthionine (thioether) rings
# B2: GST-p6 (GST-tagged HIV p6 protein) (natural protein)
# chain: LQSRPEPTAPPEESFRSGVETTTPPQKQEPIDKELYPLTSLRSLFGNDPSSQ
# B3: FITC labelled PTAP peptide (GGPEPTAPPEE) (peptide)
# peptide: GGPEPTAPPEE
# modifications: also: FITC label, position not given here
# How the values were obtained:
# p6–UEV interaction = target: T1, p6–UEV interaction; experiment: sandwich ELISA monitoring disruption of the p6–UEV PPI; assay type: binding, HIV p6 / human UEV (TSG101)
# [1] = system: GAG-mediated budding of virus-like particles from HEK293T cells; experiment: virus-like particle budding assay; assay type: cell-based, human; conditions: 25 μM
# [2] = target: T2, His6-UEV (ubiquitin E2 variant domain …); experiment: fluorescence polarisation
# [3] = target: T2, His6-UEV (ubiquitin E2 variant domain …); experiment: ELISA
molecule,measurement,setting,value
CC[C@H](C)[C@@H]1NC(=O)[C@H](Cc2c[nH]c3ccccc23)NC(=O)CNC(=O)[C@H](CO)NC(=O)[C@H](C(C)C)NC(=O)[C@H](CC(N)=O)NC(=O)[C@H](Cc2c[nH]c3ccccc23)NC(=O)[C@H](Cc2ccc(O)cc2)NC1=O [CP11] (cyclo(GWIYWNVS)),IC50,p6–UEV interaction,30.2 ± 2.2 µM
CGRKKRRQRRRPPQ [Tat],effect on viral budding,[1],no effect
B1,Kd,[2],5.5 µM
B2,EC50,[3],0.948 µM
B3,Kd,[2],16.6 µM
